In a protein production outcome set (Wang et al. 2014):

Assay: label from the status in PepcDB records

| Sequence | protein production |
| --- | --- |
| MDYDQQPIMYDEVELLIQAVDQQPHPLLRLRDKAIIQLGLQGGFRRSELANLKVHYLSFMRDKLKVRLPFSKSNQQGLREWKSLPDSEPFAAYHAVKSWLNESQITDGHLFRSISRDGKTLRPYHVNDNSKPKSTFSRNSGFLNGDDIYRIIKQYCLKAGLPAQYYGAHSLRSGCVTQLHENNKDILYIMARTGHTDPRSLRHYLKPKEDLEHHHHHH | failed |
| MDYFRLAEKFLREMHAKYMKRVSRPGNTPRPWFDFSEERLLSRLFEEMDELREAVEKEDWENLRDELLDVANFCMYLWGKLSVKNIYDKGEEQ | not failed |
| MDYKKTNAPSNTVTRDMMDLCADTGNIYETVAIIGKRANQISVEMKNDLSKKLQEFASYNDNLEEVFENREQIEISRYYEKLPKPTLIAAQEYEEGKVYFRNPAKEKEKLQ | not failed |
| MDYKLIITLFTFCVAAFSGMKAAEAASFSVVADGLNNARGLSFGLDGALYVTEAGTGGNGACIPSVTGQGGSLCYGTSSTVLKIENGVTSPVLTGLPSIALADGTGAGGARDIQFDTTGKPYILMGYGANPTFRNNLGNIDLGKIIAPDFQTNSWTSIADLANYELVNNPDGGDINSNPLGFFIDGNNLIAVDAGANNLLSVQTNGTNLQTLSVFPQEILTNPVFPPSGTPSTEPGQVPTPTAPPPPQLPIQVVPSSVVRGPDGAYYVSQFTGFPFPEGGAKIYRVGTDGETTIYADGFTQLTDLEFDSAGNLYALQYANQSAWKGNFDGSLIKIAADGTRTTILSGNGLESPNALAIAPNGEIYITNRSDRPGLGQIIRVENSQAVPEPNSAFSVFLLGAFGVAWLRKSTSRVCLNQKP | failed |
| MDYKSKTANDKEISIYYFSATGNSLKLSQDIAAAFGGAGLFRMTPSAGITASDSRIVGFIFPVYMGGLPGIVRRFLESYPFRKGVYYFSIGTYYTYKGCAVSVVDKIMSGKGVRLDYGYNLPTVGNCLKEYEVSSVRRTKILERAELYTSRIIDDLKKGKRKKPFPYCRLSDLLHKGLFNAFFSRSHLNFSLENGCMGCGVCERVCPVNNITLKNGVPRWGTGCEACHACVHWCPRNVIQIGKSKGRLQYHHPAVKRTMLYRVELEHHHHHH | not failed |
| MDYLSQEEDLQFFDANEEMMALNPSGFGFDVWNDSPGSVVERRRKFLEWMGVEEEGRVETKDSVSGSSVESCFDGGEENSVEAEERSGECSSSSSEVSLSGSSVEVSEELSLRVDRNVGGCDVTRRQSSSMASCSSSRYCQVKETEKQRNIAGLVTSFKKGWLSRLRSMGCTADTNIESGGRMRASSGYGDVISRVKVKHCKKQAKELSALYQSQDIKAHDGAILAMKFSNDGKFLASSGEDGIVRVWKVVEDKKSRLRRDCLNEIDPSCMYFEVNDLSQLKPVLVNEEKPKKTTESFRKTSDSACVVFPPKVFRIMEKPLYEFRGHTGEVLDISWSKDNYLLSASMDKTVRLWKVGSNDCLGVFAHNSYVTSVQFNPVNENYFMSGSIDGKVRIWNISGCSVVDWADLKDIISAVCYRPDGQGGIIGSLNGSCRFFNMSGEFLELDSQIHLHNKKKSSNKRITGFQFLPQEPTKVLVVSADSKVRILQGNNVVRKYKGVCKTRSLTSASLTSDGKHIVSACEDSNVYIWSNDEESETKKIRSFERFSANASVAATWCGFSDHNTTLPFSSPSCLSHNEGFVPGSISKGSATWPEENLPANPLSTSAMNASHYKFLKSSYQRASSSLSWGMVIVTGGWDGQIRTFQNYGLPVTT | failed |
| MDYTYTVMTQEEAEEIAYNWHYEGEYSFYDIEADEEDLAEFLHDESRGDHIFSVKEHGTLIGYFTVCKINDGTVDIGLGMKPNITGNGFGLQFINAILAFSKEKYGCKYITLSVATFNKRAIKVYKRAGFEAVGTFIQKTNGSCFEFLKMNYICKND | failed |
| MEAEKKKLSIPPKGIRAIIEAIRLGEIIKPSQYAKREAFKKHDVEEAWLNRVLTMIFYDIMKKQGLIDKVIKEIVGVTPLILDPWLRAALRVAVDIALFHDPSSQTIKNLRWKASDFISSRTHPYVGMYFWDLLDKIFEYKPNPKNELEELEWKYLAPSWLIERVKGILGDETEDFFRSVNKRHEWISIRVNTLKANVEEVIGELEEDGVEVVRSERVPTILKIKGPYNFDTSSAFNEGKIIVQEEASAVASIVLDPKPGETVVDLAAAPGGKTTHLAELMKNKGKIYAFDVDKMRMKRLKDFVKRMGIKIVKPLVKDARKAPEIIGEEVADKVLLDAPCTSSGTIGKNPELRWRLREDKINEMSQLQRELLESAARLVKPGGRLLYTTCSIFKEENEKNIRWFLNVHPEFKLVPLKSPYDPGFLEGTMRAWPHRHSTIGFFYALLEKSK | not failed |
| MEAGFVSVGDVTFRDLEDEAIVELVRKGNTDALEYLIHKYKNFVRAKSRSYFLVGADREDIVQEGMIGLFKAIRDYKEDKLSSFKAFAELCITRQIITAIKTATRQKHIPLNSYVSLDKPIYDEESDRTLLDVISEAKVTDPEEMIISQEEYTDIESKISELLSDLERKVLSLYLDGRSYQEISEQLNRHVKSIDNALQRVKRKLERYMEMRESTTLNS | failed |
| MEAKKSNKIREIVKLQQLLKKWRKQAIASKAANNNNEDNNSSGGGSKSIKFLKRTLSFTDVTAVPKGYLAVSVGLEKKRYTIPTEYLSHQAFYVLLREAEEEFGFQQAGVLRIPCEVSVFESILKIMEEKNEGYLVTPITAKQECKFNAAADDKTSYQHPSDCPKTPSHQPHNSPMCR | not failed |
| MEAMTLPPQDLPPGQALLATPLGTANAPQAARVHTYPLRFTGQASEYFRVWIVNLALTVITLGLYTPWARIRTRQYLYGHTWLDDQNFEYTASPFALLRGYLIVVAFFGLYTAAQQLQFTGWEWVTGALGLLFAVAYPWLVRQSMRFQARSTVHRGLRFRFTGSLGDAYVSYGVANIAAVFSGSLALPWAWFMQRRYQADGLAYGTARGHFRGSLGPFYLIGLAGAGLTVLGIGLLAGLAIGAATIAGVLGDLNLEQLDTDLLTSAVVVAFVLGYLALAVLYGIAWQYVRAATMHYVLNNFELGGVVRTQATFSPWRLVWINLANTLARIFSLGLLTPWTVIRTNRYLLGHVQVRAIVSLDDFSAAQTEDESAVGEAATELLDINIGF | failed |
| MEAPTVLDVGCGDGARTLANLPPRSVGLDFSRAGLDLAAETVPDSRLVQGDMGSLPVTTDSVDAITAYHAVFHVQRDQHPEVYREFARVLRPGGTVLMTLPSGQFETVRRGWMGGSMFFSAPGRRATLDQLADAGFTETETVTATDPLGSDSEFVFATLADALEHHHHHH | failed |
| MEDEHSRQAYVDQLGLLEEGADEVFEEILAAATSYFQTPIALISILDHQRQWFRASIGLDIRQTPRRDSFCAYAILGKGVFEVADATLDPRFRDNPYVQGEPRIRFYAGAPLATAEGLNLGSLCVIDREPRGPLAERDVAMLEHFARLVMARIHTLRSTNYIDEPTGLYNRLRLQEDVSLRLQRDGALTVIAADLLPLALLNTIIRTLGYPFSNDLMLEARDRIRAELPDFTLYKISPTRFGLLLPRQQQEETESVCLRLLRAFESPVVCRGIPIKANVGLGVLPLADDTLDGDQDWLRLVVSAADDARDRGVGWARYNPPLDQAQQRAFTLLTSLSQAIGTEEGFHLVYQPKIDLPTGRCTGVEALLRWRHPQLGFVSPAEFVPLAEKTALMRPLSDWVLRHAMAQLAQWNARNIPLRLAINVSASDMEDSSFLEEAVRLAKTYDIDLSALELEFTESVLIRDASAVGSVLLRARELGMGIAVDDFGTGYSNWTYLRDLPITAIKLDQSFTRDLAGSPKAQSVTQAVIGLASQLGYRVVAEGIETHDTFHLLQAWGCHEGQGYLIAQPMLPEQLEDWLRRLEHHHHHH | failed |
